The results in this text go back to US20240325490A1 (RESEARCH AND BUSINESS FOUNDATION SUNGKYUNKWAN UNIVERSITY, published 2024).

Assay [1] addresses T1, P62 (endogenous, mouse brain) (mouse, UniProt Q64337 2-442, limits assumed).
T1 construct: Endogenous protein in mouse brain tissue
Kind of assay: immunoprecipitation / immunoblot from AAV2-injected mouse brains after MCAO (FIGS. 6F and 6G). In general terms: In western blotting, separated proteins are transferred to a membrane and probed.

The target of assay [2] is T1, P62 (endogenous, mouse brain). Kind of assay: protein ligation assay (PLA) in situ, mouse brain CA1 after MCAO.

B1: GFP-EBP1-K376A expressed from AAV2 in mouse brain (other, UniProt Q9UQ80 1-394, looked up)
chain: MSGEDEQQEQTIAEDLVVTKYKMGGDIANRVLRSLVEASSSGVSVLSLCEKGDAMIMEETGKIFKKEKEMKKGIAFPTSISVNNCVCHFSPLKSDQDYILKEGDLVKIDLGVHVDGFIANVAHTFVVDVAQGTQVTGRKADVIKAAHLCAEAALRLVKPGNQNTQVTEAWNKVAHSFNCTPIEGMLSHQLKQHVIDGEKTIIQNPTDQQKKDHEKAEFEVHEVYAVDVLVSSGEGKAKDAGQRTTIYKRDPSKQYGLKMKTSRAFFSEVERRFDAMPFTLRAFEDEKKARMGVVECAKHELLQPFNVLYEKEGEFVAQFKFTVLLMPNGPMRITSGPFEPDLYKSEMEVQDAELKALLQSSASRKTQKKKKKKASATAENATSGETLEENEAGD
notes: also called AAV2-GFP-EBP1-K376A; AAV2-K376A; not shown: GFP tag
For the molecule B1, the binding result in assay [1] is recorded as “no binding”.

B2: EBP1 (endogenous, mouse brain) (other, UniProt P50580 2-394, looked up)
chain: SGEDEQQEQTIAEDLVVTKYKMGGDIANRVLRSLVEASSSGVSVLSLCEKGDAMIMEETGKIFKKEKEMKKGIAFPTSISVNNCVCHFSPLKSDQDYILKEGDLVKIDLGVHVDGFIANVAHTFVIGVAQGTQVTGRKADVIKAAHLCAEAALRLVKPGNQNTQVTEAWNKVAHSFNCTPIEGMLSHQLKQHVIDGEKTIIQNPTDQQKKDHEKAEFEVHEVYAVDVLVSSGEGKAKDAGQRTTIYKRDPSKQYGLKMKTSRAFFSEVERRFDAMPFTLRAFEDEKKARMGVVECAKHELLQPFNVLYEKEGEFVAQFKFTVLLMPNGPMRITSGPFEPDLYKSEMEVQDAELKALLQSSASRKTQKKKKKKASKTVENATSGETLEENGAGD
notes: Endogenous protein detected in situ by PLA; also called mouse Ebp1
Consider B2, for which the binding result in assay [2] was “binds”.
